{"source": "paper PMC10374065", "about": "(PLOS Pathogens, 2023)", "binders": {"B1": {"name": "purified recombinant T7-tagged vIRF-1 (natural protein)", "chain": "MDPGQRPNPFGAPGAIPKKPCLSQGSPGTSGSGAPCDEPSRSESPGEGPSGTGGSAAAGDITRQAVVAAITEWSRTRQLRISTGASEGKASIKDWIVCQVNSGKFPGVEWEDEERTRFRIPVTPLADPCFEWRRDGELGVVYIRERGNMPVDASFKGTRGRRRMLAALRRTRGLQEIGKGISQDGHHFLVFRVRKPEEEQCVECGVVAGAVHDFNNMARLLQEGFFSPGQCLPGEIVTPVPSCTTAEGQEAVIDWGRLFIRMYYNGEQVHELLTTSQSGCRISSALRRDPAVHYCAVGSPGQVWLPNVPNLACEIAKRELCDTLDACAKGILLTSSCNGIFCVCYHNGPVHFIGNTVPPDSGPLLLPQGKPTRIFNPNTFLVGLANSPLPAPSHVTCPLVKLWLGKPVAVGKLEPHAPSPRDFAARCSNFSDACVVLEIMPKPLWDAMQ", "notes": "source: purified recombinant protein; not shown: T7, C-terminal, kept"}}, "assay_in_all_cases": "pull-down", "conditions_in_all_cases": "both partners purified", "key": {"GST-LC3B E41K": {"biological_target": "GST-LC3B E41K (human, UniProt Q9GZQ8 1-120, E41K)"}, "GST-GABARAPL1": {"biological_target": "T1, GST-GABARAPL1 (human, UniProt Q9H0R8 1-117)", "T1 construct": "also called GABARAP-like 1; GL1"}, "GST-LC3B L22K": {"biological_target": "GST-LC3B L22K (human, UniProt Q9GZQ8 1-120, L22K)"}, "GST-LC3B D19E": {"biological_target": "GST-LC3B D19E (human, UniProt Q9GZQ8 1-120, D19E)"}, "[1]": {"biological_target": "T2, purified recombinant T7-tagged GABARAPL1 (human, UniProt Q9H0R8 1-117)", "T2 construct": "also called T7-GABARAPL1"}, "[2]": {"biological_target": "B1"}}, "data": [{"binder": "B1", "values": [{"measurement": "binding result", "setting": "GST-LC3B E41K", "result": "binds"}, {"measurement": "binding result", "setting": "GST-GABARAPL1", "result": "binds"}, {"measurement": "binding result", "setting": "GST-LC3B L22K", "result": "binds"}, {"measurement": "binding result", "setting": "GST-LC3B D19E", "result": "binds"}]}, {"binder": "GST-fused full-length (FL) vIRF-1 (natural protein) MDPGQRPNPFGAPGAIPKKPCLSQGSPGTSGSGAPCDEPSRSESPGEGPSGTGGSAAAGDITRQAVVAAITEWSRTRQLRISTGASEGKASIKDWIVCQVNSGKFPGVEWEDEERTRFRIPVTPLADPCFEWRRDGELGVVYIRERGNMPVDASFKGTRGRRRMLAALRRTRGLQEIGKGISQDGHHFLVFRVRKPEEEQCVECGVVAGAVHDFNNMARLLQEGFFSPGQCLPGEIVTPVPSCTTAEGQEAVIDWGRLFIRMYYNGEQVHELLTTSQSGCRISSALRRDPAVHYCAVGSPGQVWLPNVPNLACEIAKRELCDTLDACAKGILLTSSCNGIFCVCYHNGPVHFIGNTVPPDSGPLLLPQGKPTRIFNPNTFLVGLANSPLPAPSHVTCPLVKLWLGKPVAVGKLEPHAPSPRDFAARCSNFSDACVVLEIMPKPLWDAMQ", "values": [{"measurement": "binding result", "setting": "[1]", "result": "binds"}]}, {"binder": "GST-GABARAP (natural protein, human, UniProt O95166 1-117, looked up, also called γ-amino-butyric acid receptor-associated protein) MKFVYKEEHPFEKRRSEGEKIRKKYPDRVPVIVEKAPKARIGDLDKKKYLVPSDLTVGQFYFLIRKRIHLRAEDALFFFVNNVIPPTSATMGQLYQEHHEEDFFLYIAYSDESVYGL", "values": [{"measurement": "binding result", "setting": "[2]", "result": "binds"}]}]}
